Data from patent US20130337438A1 (JAPAN HEALTH SCIENCES FOUNDATION, published 2013).

What was measured:
[1] = target: T1, HPV33 L1/L2-capsid (human papillomavirus type 33, UniProt P06418 1-467; P06416 1-499); assay: ELISA on immobilized L1/L2-capsid, ascites 1:100
T1 construct: Capsid of co-expressed L1 and L2 from 293FT cells; The pseudovirus is the same capsid with a reporter plasmid; also called L1/L2-capsid of type 33; HPV33 pseudovirus
T1 sequence 1: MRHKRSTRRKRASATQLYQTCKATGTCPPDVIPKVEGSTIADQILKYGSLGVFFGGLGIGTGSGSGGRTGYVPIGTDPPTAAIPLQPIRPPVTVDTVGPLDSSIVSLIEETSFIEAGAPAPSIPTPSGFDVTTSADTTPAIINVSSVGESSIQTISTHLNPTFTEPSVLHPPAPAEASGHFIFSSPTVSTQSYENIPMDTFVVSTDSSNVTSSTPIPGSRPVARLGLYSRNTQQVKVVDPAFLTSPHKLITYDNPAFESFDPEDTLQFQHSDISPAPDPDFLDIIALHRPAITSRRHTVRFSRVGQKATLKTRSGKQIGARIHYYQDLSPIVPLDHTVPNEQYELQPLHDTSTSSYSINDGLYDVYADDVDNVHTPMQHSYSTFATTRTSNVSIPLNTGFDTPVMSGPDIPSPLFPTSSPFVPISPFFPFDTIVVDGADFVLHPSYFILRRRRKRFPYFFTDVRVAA
T1 sequence 2: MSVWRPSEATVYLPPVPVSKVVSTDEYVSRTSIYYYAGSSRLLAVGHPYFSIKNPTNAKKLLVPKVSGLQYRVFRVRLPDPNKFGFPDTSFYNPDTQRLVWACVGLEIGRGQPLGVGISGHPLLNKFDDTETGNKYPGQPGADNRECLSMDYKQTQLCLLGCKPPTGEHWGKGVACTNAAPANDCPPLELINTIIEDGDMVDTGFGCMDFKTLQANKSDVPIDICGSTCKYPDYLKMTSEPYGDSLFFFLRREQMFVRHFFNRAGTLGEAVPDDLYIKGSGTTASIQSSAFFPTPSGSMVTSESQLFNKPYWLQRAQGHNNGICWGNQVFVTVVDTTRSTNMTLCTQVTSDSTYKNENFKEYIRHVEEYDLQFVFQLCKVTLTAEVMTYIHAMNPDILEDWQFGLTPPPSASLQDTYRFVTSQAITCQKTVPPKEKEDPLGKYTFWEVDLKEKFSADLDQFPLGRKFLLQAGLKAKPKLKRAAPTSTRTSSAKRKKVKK

[2] = target: T2, HPV51 L1/L2-capsid (human papillomavirus type 51, UniProt P26539 1-468; P26536 1-504); assay: ELISA on immobilized L1/L2-capsid, ascites 1:100
T2 construct: Capsid of co-expressed L1 and L2 from 293FT cells; The pseudovirus is the same capsid with a reporter plasmid; also called L1/L2-capsid of type 51; HPV51 pseudovirus
T2 sequence 1: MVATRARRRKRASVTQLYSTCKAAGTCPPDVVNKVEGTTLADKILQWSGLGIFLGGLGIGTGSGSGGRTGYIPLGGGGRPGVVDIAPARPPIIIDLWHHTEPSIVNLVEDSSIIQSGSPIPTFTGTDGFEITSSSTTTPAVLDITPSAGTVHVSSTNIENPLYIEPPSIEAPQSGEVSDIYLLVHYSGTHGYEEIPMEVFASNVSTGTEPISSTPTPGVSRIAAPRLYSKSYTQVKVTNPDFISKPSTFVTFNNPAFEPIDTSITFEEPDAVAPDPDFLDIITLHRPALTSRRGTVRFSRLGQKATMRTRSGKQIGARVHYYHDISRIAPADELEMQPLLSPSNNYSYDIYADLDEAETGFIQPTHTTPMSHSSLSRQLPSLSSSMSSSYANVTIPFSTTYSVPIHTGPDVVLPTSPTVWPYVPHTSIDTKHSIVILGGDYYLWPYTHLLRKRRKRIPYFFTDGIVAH
T2 sequence 2: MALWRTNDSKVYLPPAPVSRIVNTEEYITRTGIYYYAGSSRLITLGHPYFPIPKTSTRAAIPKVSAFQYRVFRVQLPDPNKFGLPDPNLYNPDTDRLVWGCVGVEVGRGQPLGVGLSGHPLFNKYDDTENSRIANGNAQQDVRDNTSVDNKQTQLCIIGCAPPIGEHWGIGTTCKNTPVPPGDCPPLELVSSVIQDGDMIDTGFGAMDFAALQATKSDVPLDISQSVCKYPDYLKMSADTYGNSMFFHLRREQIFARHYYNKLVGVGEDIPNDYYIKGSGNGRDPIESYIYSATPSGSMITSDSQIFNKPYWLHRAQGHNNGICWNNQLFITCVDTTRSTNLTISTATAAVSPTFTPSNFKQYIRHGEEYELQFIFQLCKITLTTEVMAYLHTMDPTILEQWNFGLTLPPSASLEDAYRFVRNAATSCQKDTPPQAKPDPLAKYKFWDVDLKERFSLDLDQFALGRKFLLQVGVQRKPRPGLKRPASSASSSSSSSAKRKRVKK

B1: monoclonal antibody 24B (antibody, V domains shown)
VH: EVQLQQSGTVLARPGASVKMSCKASVYSFPSNWMHWVKQRPGQGLEWIGAIYPGTGATRYNQKFKDKAKLTAVTSADTAYMELSSLTDEDSAVYYCTGYSLYWGQGTILTVSS
VL: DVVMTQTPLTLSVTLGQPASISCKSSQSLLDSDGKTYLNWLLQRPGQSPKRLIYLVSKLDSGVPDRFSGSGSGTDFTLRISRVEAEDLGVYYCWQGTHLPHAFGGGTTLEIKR
notes: Used as mouse ascites or as antibody purified from ascites; also called Mouse-Mouse hybridoma 24B (FERM BP-11305)
[1]
  binding result: binds
[2]
  binding result: binds
